Paper PMC12004354

Key:
[1] = target: T1, human recombinant C-reactive protein (human), P02741; test: native MS; direct infusion native MS with SID; 50 mM ammonium acetate, for charge reduction 20% (v/v) 50 mM TEAA added; settings: remark: other sources report otherwise
T1 chain: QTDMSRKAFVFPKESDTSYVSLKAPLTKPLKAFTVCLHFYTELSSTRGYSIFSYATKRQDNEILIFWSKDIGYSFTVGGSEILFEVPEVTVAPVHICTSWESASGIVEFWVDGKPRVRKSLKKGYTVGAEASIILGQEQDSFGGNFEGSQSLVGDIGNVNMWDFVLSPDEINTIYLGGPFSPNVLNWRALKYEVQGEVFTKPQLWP

[2] = target: T1, human recombinant C-reactive protein …; test: native MS; native capillary zone electrophoresis-MS (nCZE-MS) with surface-induced dissociation (SID); LPA-coated capillary, 20 kV; BGE 50 mM ammonium acetate pH around 6.8 (normal charge) or 40 mM AmAc with 10 mM TEAA (charge-reducing); 0.5 uM of each complex; precursors 15+/11+ SA and 23+/17+ CRP isolated; settings: remark: other sources report otherwise

- stoichiometry N [1]: 5
- stoichiometry N [2]: 5
B1: human recombinant C-reactive protein, P02741 19-224 (natural protein)
chain: T1 chain
